1 molecule from PMC2901993 (Biochemical and biophysical research communications, 2010) can be followed below.

The target in this assay is T1, translin-associated factor x (trax), mouse, N-terminal 6x-His tag (mouse (M. musculus), UniProt Q9QZE7 1-290).
T1 sequence (looked up): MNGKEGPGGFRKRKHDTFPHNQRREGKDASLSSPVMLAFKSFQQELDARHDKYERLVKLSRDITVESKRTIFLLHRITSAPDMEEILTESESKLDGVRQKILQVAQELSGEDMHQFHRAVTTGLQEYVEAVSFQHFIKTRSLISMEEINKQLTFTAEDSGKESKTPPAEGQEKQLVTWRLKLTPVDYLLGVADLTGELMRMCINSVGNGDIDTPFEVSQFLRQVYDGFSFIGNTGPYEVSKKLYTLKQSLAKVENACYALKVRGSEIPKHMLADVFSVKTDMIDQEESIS
Put plainly: pull-down.

B1: translin (mouse), co-expressed with trax from pETDuet-1 (natural protein, mouse (M. musculus), UniProt Q62348 1-228, looked up)
chain: MSVSEIFVELQGFLAAEQDIREEIRKVVQSLEQTAREILTLLQGVHQGTGFQDIPKRCLKAREHFSTVKTHLTSLKTKFPAEQYYRFHEHWRFVLQRLVFLAAFVVYLETETLVTREAVTEILGIEPDREKGFHLDVEDYLSGVLILASELSRLSVNSVTAGDYSRPLHISTFINELDSGFRLLNLKNDSLRKRYDGLKYDVKKVEEVVYDLSIRGFNKETAAACGEK
For orientation: stoichiometry N means the number of molecules, sites or subunits per partner or assembly. B1: the “stoichiometry N” value is roughly 1.
